Here are results for two substances from article PMC11347149.

For series [1], the system named is His6C-CoxC (LytTR DNA-binding domain) (Afipia carboxidovorans OM5). The series is described as follows: EMSA. The settings on record: EMSA: 20 mM Tris-HCl pH 7.5, 50 mM KCl, 2 mM beta-mercaptoethanol, 10% glycerol, 250 ug/ml BSA, 50 ug/ml salmon sperm DNA, 1 mM DTT, 1 mM dithionite, 2 ng …. (In general: In EMSA bound probe runs differently from free probe, usually more slowly.)

Series [2] has as its target T1, His6C-CoxC (LytTR DNA-binding domain) (Afipia carboxidovorans OM5) (UniProt Q9KX27).
T1 sequence: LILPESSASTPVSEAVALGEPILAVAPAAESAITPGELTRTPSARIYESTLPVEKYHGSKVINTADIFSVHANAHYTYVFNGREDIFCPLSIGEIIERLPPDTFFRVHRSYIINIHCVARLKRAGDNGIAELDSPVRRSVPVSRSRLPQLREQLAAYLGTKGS
Description: EMSA. The settings on record: EMSA: 20 mM Tris-HCl pH 7.5, 50 mM KCl, 2 mM beta-mercaptoethanol, 10% glycerol, 250 ug/ml BSA, 50 ug/ml salmon sperm DNA, 1 mM DTT, 1 mM dithionite, 2 ng ….

One may read the Kd as the free concentration of one partner at which half of the binding sites on the other are occupied at equilibrium, for simple one-to-one binding. A high value points to weaker binding. In turn, PcoxB returned a Kd in series [1] of 25 nM. For the substance “AATTCCAGTTCATGCGTATGTTACCGCCGTTGGTGGAATTTGGAAGTCGTTTGGGCAAAAGCCTTTGATGCTGCTTTGCGGCAACTTCTATCGTGCCCCACGAACGTCGCATCATAAGAAATGTGACGCCCGGGGGGGACAACGCAAATGGGTTGCGAAAATATGCAGGCGCGGCAAGCACCGTGTCGCCAAGCTAGGCATTTGGCTCAAACTGTCCCCTCGAAGCTCTCTTCAACTGCTGCAAAGCATCGACCGCATTTTCGCGGACGATATTGGGATCCCG (double strand) [PcoxB]”, in series [2], the Kd came out at 25 nM and the binding result is reported as “binds”.
